Measured values reported in patent publication US20020009726A1 (LA JOLLA CANCER RESEARCH FOUNDATION, published 2002).

How the values were obtained:
[1] = biological target: LexA fusion of Ha-Ras (V12) (UniProt P0A7C2 1-202; P01112 1-189, limits assumed); test: yeast two-hybrid, growth on histidine-deficient medium (HIS3 reporter)
Protocol: (§1) The 166 clones were cured of LexA/CD40-encoding plasmids by growing the cells in tryptophan-containing medium. […] The mated cells were selected for growth in medium lacking tryptophan and leucine to obtain cells that contained both a pACT-B cell clone and a LexA-fusion protein. Colonies were transferred to histidine-deficient plates or histidine-containing media with X-Gal. Colonies expressing β-gal activity were identified using a plate assay and a filter assay. The plate assay was performed on the X-Gal containing plates -12 hr after plating according to previous methods (see Chien et al., Proc. Natl. Acad. Sci., USA 88:9578-9582 (1991), which is incorporated herein by reference). The β-gal filter assay was performed after 1 hr culture as described previously (Sato et al., supra, 1994; Breeden and Nasmyth, Cold Spring Harbor Symp. Quant. biol. 50:643-650 (1985), which is incorporated herein by reference).

[2] = biological target: T1, LexA fusion of Bcl-2 (positions 83-218) (UniProt P0A7C2 1-202; P10415 83-218); test: as above
T1 construct: also called Bcl-2 (83-218)
Protocol: as §1

LexA fusion of Lamin-C = biological target: T2, LexA fusion of Lamin-C (UniProt P0A7C2 1-202; P02545 66-230); test: yeast two-hybrid, beta-galactosidase (lacZ reporter)
T2 sequence (looked up): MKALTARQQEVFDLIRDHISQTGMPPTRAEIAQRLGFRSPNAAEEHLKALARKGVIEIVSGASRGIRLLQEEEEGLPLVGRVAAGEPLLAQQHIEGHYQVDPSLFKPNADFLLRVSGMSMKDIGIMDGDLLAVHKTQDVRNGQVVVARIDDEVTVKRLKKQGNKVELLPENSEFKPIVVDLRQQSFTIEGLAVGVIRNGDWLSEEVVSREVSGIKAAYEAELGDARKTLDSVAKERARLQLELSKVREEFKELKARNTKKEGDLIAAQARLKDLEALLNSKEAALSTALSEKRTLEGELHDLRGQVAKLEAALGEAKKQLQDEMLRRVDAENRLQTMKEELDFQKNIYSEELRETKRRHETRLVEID
Protocol: as §1

binding result [1]: no binding | binding result [2]: no binding | binding result (LexA fusion of Lamin-C): no binding
B1: CAP-1 (pACT2229/GAL4 fusion) (other, not shown: small tags and cut ends)
chain: HDQMLSVHDIRLADMDLRFQVLETASYNGVLIWKIRDYKRRKQEAVMGKTLSLYSQPFYTGYFGYKMCARVYLNGDGMGKGTHLSLFFVIMRGEYDALLPWPFKQKVTLMLMDQGSSRRHLGDAFKPDPNSSSFKKPTGEMNIASGCPVFVAQTVLENGTYIKDDTIFIKVIVDTSDLPDP
notes: Yeast two-hybrid prey; also called pACT121; CD40 associated protein-1
